# System: MS2 coat protein
# Assay: apparent KD of MS2 coat protein, switch OFF state (with FMN for OFF switches, without FMN for ON switches); designed switch direction (-1 OFF switch, 1 ON switch): 1; higher = weaker reporter binding
# Settings: FMN input: 0 or 200 uM; Eterna round: R93 (includes R88 designs)
# In short: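 Designed RNA switches were transcribed on-chip from Illumina sequencing clusters. SNAP-549-labelled MS2 coat protein was titrated onto them in twofold steps from 0.7 or 1.5 nM to 3 µM in 100 mM Tris-HCl pH 7.5, 80 mM KCl, 4 mM MgCl2, either without or with constant ligand. Apparent KD reflects the per-design median of normalised cluster binding-curve fits.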
row,Sequence,apparent KD of MS2 coat protein
1,ACAAACAAAAGAGAGGAUAUCCAAAAGAAAACAUGAGGAUCACCCAUGUGAAAGAAAAUAAAAUGGGAGAAGGCUCAGAACAACA [Topaz 28],46.2 nM
2,AGUCAACAUGAGGAUCACCCAUGUCUGAGAGCAUGAGGAUAUCUAGAUGGGCAGCAUGAUAGAGAAGGCAUGCGCC [Biongear],116 nM
3,AGGAGACAUGAGGAUCACCCAUGUGAGAAGAGGCGAGGAUAUCGAAAGAAAGAAGAGAAACGAGAAGGCGCGAGCC [salish99-SS1-032],28.8 nM
4,AAAAGACAUGAGGAUCACCCAUGUAAAAACGUAGGAGGAUAUGUAUGGAAACCAGACUGUACAGAAGGCCUCUGUC [SS1 - 72],21.1 nM
5,AAUAUACAUGAGGAUCACCCAUGUUUUAAUAGUUGAGGAUAUACGGGUGAAAAUAGCAUAGUAGAAGGCGAGUGUA [SameState1 Malc#12],106 nM
6,GGAUAACAUGAGGAUCACCCAUGUACAUGGGUACAAGGAUAUGUAAAAUAAAACAAACAAACAGAAGGUGUAAAAA [I'm in a state],163 nM
7,ACUAUACAUGAGGAUCACCCAUGUCAGGUGGGACUAGGAUAUCAAAAGCCAGAGUAAGAAUGAGAAGGAGUAGAAA [JR_SS001_Sub304],69.3 nM
8,AAAAAACAUGAGGAUCACCCAUGUCGAAAGACGUGAGGAUAUGUACAGACUUCGGUCUGUACAGAAGGCAUGUAAA [SS1 - 1054],1110 nM
9,GGGAGACAUGAGGAUCACCCAUGUGAAAACGUGUGAGGAUAUCUAUGGAAACCAUACUGUAGAGAAGGCACUUGUC [Servius Sulpicius Similis],125 nM
10,AAUAAACAUGAGGAUCACCCAUGUCUUUUACAUCAAGGAUAUGGGAUCGGAAAUCCGACACCAGAAGGUGAGUAGA [Userra],300 nM
11,GGUCGACAUGAGGAUCACCCAUGUAAGCCAAGGCAAGGAUAUGGGUAUAGGGUGCUAGGAUUAGAAGGUGCCAAAA [Soredige],82.8 nM
12,GUUAGGAAGAGAGAGGAUAUCCAAAGGAAAACAUGAGGAUCACCCAUGUAAAAGGUAGGAAAUUGGGAGAAGGCUCAAGAGAGAG [salish99-ss2-079],37.5 nM
13,AAGAAACAUGAGGAUCACCCAUGUGAGAUAAACACAGGAUAUGCGAAAAGAAACAAAGAAGCAGAAGGGUGAAGAA [Mat - Same State 1 - Tesla mod - 55],126 nM
14,AGAAAACAUGAGGAUCACCCAUGUAGGAAUAUGGGAGGAUAUACAGAGACGAAAGUCAGAGUAGAAGGCCUAAGAA [salish99-SS1-088],96.7 nM
15,GCAGGGCUACACUAGGAUAUGGGUGUCUAAACAUGAGGAUCACCCAUGUGAUGGCAAAACAAAGCUCAGAAGGAGUCGUAGCCCA [Bebirare],24.3 nM
16,AUAUGAGCUAAUGAGGAUAUCCAUAAUAAGACAUGAGGAUCACCCAUGUAAACAAAACAAUAAUGGGAGAAGGCAUUAGCUCAAU [SS 2 M49],58.8 nM
17,CAAACAACAACACAGGAUAUACAUAUAAUAACAUGAGGAUCACCCAUGUAAGGCAAAAAUAAGCUGUAGAAGGGUGAACACACAA [Default title],14.1 nM
18,AACAGACAUGAGGAUCACCCAUGUAGAAUUAUGGGAGGAUAUACAAAGACGAGAGUCAGAGUAGAAGGCCUAGGAG [salish99-ss1-162],44.3 nM
19,AAUCCAAAUAGUCAGGAUAUCAAAAAUAAGACAUGAGGAUCACCCAUGUACUUAGUAAAAGUAAAUGAGAAGGGACAGGGUGAAA [JR_SS002_Sub403],29.4 nM
20,AGGAAGGAGAGAGAGGAUAUCCAAAGGAAAACAUGAGGAUCACCCAUGUAGAAGGUAGGAAAUUGGGAGAAGGCUCAAGAGACAG [salish99-ss2-126],49.5 nM
21,AACAAUCUAUCUGAGGAUAUGUGUCGAAAGACAUGAGGAUCACCCAUGUCAAAACAUGGAAAGAUACAGAAGGCAGAUAGAUUGA [SS2: 1158],11.9 nM
22,UAAAAACAUGAGGAUCACCCAUGUAGAAAUAUGGGAGGAUAUACGAAGACGAAAGUCAAAGUAGAAGGCCUAAAAU [Mat - Same State 1 - Eli mod - D104],58 nM

row,Sequence,apparent KD of MS2 coat protein
1,AAGAAACAUGAGGAUCACCCAUGUACCCAAAAGCGAGGAUAUGGGAAAGAAAGAAAGAAACCAGAAGGCGCAUGAA [Darius II],35.5 nM
2,AACAAUCUAUCUGAGGAUAUCAUGUCAAAGACAUGAGGAUCACCCAUGUACCAGGAAACUGGUUAUGAGAAGGCAGAUAGAUUGA [SS2: 1115],1290 nM
3,UACAGACAUGAGGAUCACCCAUGUAGAAUUAUGGGAGGAUAUACAAAGACGAGAGUCAGAGUAGAAGGCCUAGGAA [salish99-ss1-164],64.6 nM
4,CGAAGACAUGAGGAUCACCCAUGUGGGAAUAUGGGAGGAUAUACAAAGACGAGAGUCAGAGUAGAAGGCCUAGGAG [salish99-ss1-106],59.3 nM
5,AACAAUCUAUCUGAGGAUAUGUGUCAAAAGACAUGAGGAUCACCCAUGUAAAAACAUGAAAAAACACAGAAGGCAGAUAGAUUGA [SS2: 1148],59.3 nM
6,ACAAAGCUACACUAGGAUAUGGGUGUCUAAACAUGAGGAUCACCCAUGUGAUGGCAAAACAAAGCUCAGAAGGAGUCGUAGCCCA [Bientevece],34.9 nM
7,AGAGAUAACAGAGAGGAUAUCCAAUAGAAAACAUGAGGAUCACCCAUGUGAAAGAUAAUAAAAUGGGAGAAGGCUCACAAUAAGA [Topaz 42],39.8 nM
8,AAAAAACAUGAGGAUCACCCAUGUGAGAACAUGGGAGGAUAUACAAGGACGAGAGUCAAAGUAGAAGGCCUAAAAA [Garnet 65],29.9 nM
9,"AAGAAACAUGAGGAUCACCCAUGUAAACUCGAGAGAGGAUAUCGUACAUGGAAGAUUCAACGAGAAGGCUCUAGAG [Same State 1.1a (Pariah 3, G boost at 31, GC 76/28)]",41.5 nM
10,UUUAAUUAUACGAAGGAUAUCGAUAAUAAGACAUGAGGAUCACCCAUGUAAUAUUUUUCCAUAUUCGAGAAGGUCGCGGGUGAAC [JR_SS002_Sub601],16.9 nM
11,"AAAAUAAAAAGGUAGGAUAUGGGUAAAACUACAUGAGGAUCACCCAUGUAAUAAAAAGAAAAAAACCAGAAGGACCAAAAUAAAA [72%, More Wateronthemoon, 8]",34.7 nM
12,GAAAAACAUGAGGAUCACCCAUGUAGAAAUAUGGGAGGAUAUACAAAGACGUAAGUCAAAGUAGAAGGCCUAAAAG [Mat - Same State 1 - Eli mod - D8],76.9 nM
13,GAAAAACAUGAGGAUCACCCAUGUGUAAACACGGGAGGAUAUACAAAGACGUAAGUCAAAGUAGAAGGCCUAAAAG [Garnet 39],96.5 nM
14,AUAAAACAUGAGGAUCACCCAUGUCAACAAAGUCGAGGAUAUGGGCAAAUAAAAUAAGAACCAGAAGGCGAAUAAU [Teenbexe],593 nM
15,AAAAAACAUGAGGAUCACCCAUGUAAAAAAAACACAGGAUAUCCCUUUAAAAAAAAAAAAGGAGAAGGGUGAAAAA [Nob's Hobby 4 - Jieux - Same State 1],23.4 nM
16,AAAAAACAUGAGGAUCACCCAUGUGCAAAAUUCGCAGGAUAUUCCUUUUUUAAAUGGGAGGGAGAAGGGUGUAAAA [Nob's Hobby 19 - Jieux - Same State 1],34.5 nM
17,AAACAACAUGAGGAUCACCCAUGUCAAACAAAUCGAGGAUAUGGGCAGGAUUCUUCCUAACUAGAAGGCGAAAACA [Esmatidi],29.8 nM
18,AAAAACACGGUGCAGGAUAUAUUAAUAGUCACAUGAGGAUCACCCAUGUUCAUUUAUAUGAACGAGUAGAAGGGCGGUGAAAAAA [Mat - Same state - Malcolm Mod - D112],148 nM
19,AAAAAACAUGAGGAUCACCCAUGUCGAAAGACGUGAGGAUAUGUACAGACUUCGGUCUGUACAGAAGGCACGUAAA [SS1 - 1040],33.8 nM
20,AGAAGGUGGGUCGAGGAUAUCAGGCACGCCACAUGAGGAUCACCCAUGUUUUUGGCACCGCCCAAUGAGAAGGUGAACACCUUCA [Cesobe],12.4 nM
21,AAUAAUUAUAUGGAGGAUAUCCGUAAUAAGACAUGAGGAUCACCCAUGUAAUAAGGGUAAAUAAAGGAGAAGGCCAAGGGUGAAA [JR_SS002_Sub003],184 nM
22,AAAAAACAUGAGGAUCACCCAUGUCUUCGGACAUGAGGAUAUGUACAGACUUCGGUCUGUACAGAAGGCAUGUAAA [SS1 - 1017],61.2 nM

# — the supplement of paper PMC9170038
